The text below walks through data of patent US20210047428A1.

Assay [1] addresses HEL R21Q G71R R73K L75A N77G D101R (self with foreign 71, 73, 75, 77) (hen) (UniProt P00698). The experiment in a line: BLI; against I29F Fab on DEL.
Assay [2] concerns the target HEL R21Q R73E L75A D101R (self with foreign 75) (hen) (UniProt P00698). As to the kind of experiment: BLI; against I29F Fab on DEL.
The target of assay [3] is HEL R21Q R73K D101R (self with foreign 73) (hen) (UniProt P00698). The experiment in a line: BLI; against I29F Fab on DEL.
The target in assay [4] is HEL R21Q R73K L75A D101R (self with foreign 73, 75) (hen) (UniProt P00698). As to the kind of experiment: BLI; against I29F Fab on DEL.
Assay [5] addresses HEL^3X (hen egg lysozyme R21Q, R73E, D101R), soluble recombinant (hen) (UniProt P00698). The experiment in a line: BLI; against I29F Fab on DEL.
Assay [6] has as its target duck egg lysozyme (DEL), soluble recombinant (duck) (UniProt P00705). As to the kind of experiment: BLI; against I29F Fab on DEL.
Assay [7] shares this target. As to the kind of experiment: BLI; against WT HyHEL10 on DEL.
The target in assay [8] is HEL R21Q G71R R73K L75A N77G D101R (self with foreign 71, 73, 75, 77) (hen) (UniProt P00698). The experiment in a line: BLI, Fab on streptavidin sensor.
Assay [9] concerns the target HEL R21Q R73E L75A D101R (self with foreign 75) (hen) (UniProt P00698). The experiment in a line: BLI, Fab on streptavidin sensor.
Assay [10] deals with HEL R21Q R73K D101R (self with foreign 73) (hen) (UniProt P00698). The experiment in a line: BLI, Fab on streptavidin sensor.
For assay [11], the target named is HEL R21Q R73K L75A D101R (self with foreign 73, 75) (hen) (UniProt P00698). As to the kind of experiment: BLI, Fab on streptavidin sensor.
Assay [12] has as its target HEL^3X (hen egg lysozyme R21Q, R73E, D101R), soluble recombinant (hen) (UniProt P00698). The experiment in a line: BLI, Fab on streptavidin sensor.
Assay [13] addresses duck egg lysozyme (DEL), soluble recombinant (duck) (UniProt P00705). As to the kind of experiment: BLI, Fab on streptavidin sensor.
In assay [14] the target is HEL^3X (hen egg lysozyme R21Q, R73E, D101R), soluble recombinant (hen) (UniProt P00698). The experiment in a line: BLI; against WT HyHEL10 on HEL^3X.
The target is the same in assay [15]. As to the kind of experiment: BLI (BLItz), biotinylated Fab on streptavidin biosensor, soluble monomeric HEL3X, global fit.
The target in assay [16] is duck egg lysozyme (DEL), soluble recombinant (duck) (UniProt P00705). As to the kind of experiment: BLI (BLItz), biotinylated Fab on streptavidin biosensor, soluble monomeric DEL 0.03-0.25 µM, global fit.
The target is the same in assay [17]. As to the kind of experiment: BLI (BLItz), biotinylated Fab on streptavidin biosensor, soluble monomeric DEL, global fit.
Assay [18] shares this target. The experiment in a line: BLI; affinity for DEL against affinity for HEL^3X.
Assay [19] addresses HEL^3X (hen egg lysozyme R21Q, R73E, D101R), soluble recombinant (hen) (UniProt P00698). The experiment in a line: BLI, highest concentration of HEL^3X tested.
The target is the same in assay [20]. The experiment in a line: BLI.
Assay [21] has as its target duck egg lysozyme (DEL), soluble recombinant (duck) (UniProt P00705). As to the kind of experiment: BLI.
Assay [22] has the same target. The experiment in a line: BLI (BLItz), biotinylated Fab on streptavidin biosensor, soluble monomeric DEL 0.025-0.25 µM, global fit.
In assay [23] the target is HEL^R21Q,R73E,C76S,C94S (HEL^2X-flex) (hen) (UniProt P00698). As to the kind of experiment: BLI (Example 10).
The target in assay [24] is duck egg lysozyme (DEL), soluble recombinant (duck) (UniProt P00705). The experiment in a line: BLI (BLItz), biotinylated Fab on streptavidin biosensor, soluble monomeric DEL 0.03-0.5 µM, global fit.

HyHEL10 Fab I29F: the Fold change in [1] is -2 fold; in assay [2], -54.5 fold; in assay [3] it was -22.3 fold; in assay [4] it was -1.8 fold; in [5], -56.1 fold; in [6], 0 fold. Further, the Fold change in [7] is 2.6 fold; in assay [14], -10.5 fold. Further, the ΔΔG apparent in assay [7] was -0.6 kcal/mol; in assay [14] it was 1.4 kcal/mol. The dissociation constant Kd worked out at 32 nM in assay [8]; 856 nM in assay [9]; 350 nM in assay [10]; 28 nM in assay [11]; 880 nM in assay [12]; 15 nM in assay [13]. The figures for the Kd in assay [15] and in assay [16] were 880 nM and 16 nM, respectively. Moreover, the figures for the Ka in assay [15] and in assay [16] were 1.1e+06 M⁻¹ and 6.4e+07 M⁻¹, respectively.
Regarding HyHEL10 Fab I29F/S52T, the ΔΔG apparent in assay [7] was -1.1 kcal/mol. The Kd in [13] came to 6 nM. For the same substance, in [17], the Ka was 1.7e+08 M⁻¹ and the Kd worked out at 5.8 nM.
For the substance HyHEL10 Fab I29F/S52T/Y53F, the Fold change in assay [7] was 245 fold; in [14], -9.6 fold. Also, the ΔΔG apparent in assay [7] was -3.3 kcal/mol; in [14] it was 1.3 kcal/mol. In addition, the dissociation constant Kd in [12] was determined as 807 nM; in [13], 0.164 nM; in assay [17] it was 0.16 nM. In addition, the fold differential binding to foreign (DEL) over self (HEL^3X) in [18] stood at 5000 fold. Also, in assay [17], the Ka was found to be 6.1e+09 M⁻¹.
On to HyHEL10 Fab I29F/S52T/Y58F, for which, in [7], the Fold change is 23.8 fold and the ΔΔG apparent is -1.9 kcal/mol. Moreover, the Kd in assay [13] is 2 nM.
Take HyHEL10 Fab I29F/Y53F: the ΔΔG apparent in assay [7] is -2.2 kcal/mol. Moreover, the Kd in assay [13] and in [17] was 1 nM throughout. Also, in assay [17], the Ka was 9.7e+08 M⁻¹.
As to HyHEL10 Fab S52R, the fold lower affinity against unmutated HyHEL10 in [19] was greater than 100 fold.
Same read-out and setting: the figure for HyHEL10 Fab S52R/Y53F is greater than 100 fold.
Turning to HyHEL10 Fab S52T, in assay [7], the Fold change stood at 1.2 fold and the ΔΔG apparent was -0.1 kcal/mol. Further, the Kd in assay [13] is 33 nM. In assay [17], the Ka is 3e+07 M⁻¹ and the dissociation constant (Kd) was determined as 34 nM.
Take HyHEL10 Fab S52T/Y53F: the Fold change was 1.1 fold in [7] and -1.8 fold in [14]. The ΔΔG apparent in assay [7] was -1.4 kcal/mol; in [14], 0.3 kcal/mol. Also, the values for the Kd in [12], in assay [13] and in assay [17] were 152 nM, 3.6 nM and 3.6 nM, respectively. Moreover, the Ka in [17] came to 2.8e+08 M⁻¹.
On to HyHEL10 Fab S52T/Y53F/Y58F, for which the fold increase of affinity against unmutated HyHEL10 in [20] came out at 4 fold. For the same substance, the fold lower affinity than the I29F-S52T-Y53F trio in [21] worked out at 3 fold. Besides, the results for the Fold change in assay [7] and in assay [14] were 80 fold and 3.5 fold, respectively. For the same substance, the ΔΔG apparent in assay [7] is -2.6 kcal/mol; in assay [14], -0.7 kcal/mol. In addition, the values for the Kd in assay [12], in assay [13] and in assay [17] were 24 nM, 0.5 nM and 0.5 nM, respectively. Further, the Ka in assay [17] turned out to be 1.99e+09 M⁻¹.
HyHEL10 Fab S52T/Y58F: the equilibrium dissociation constant (Kd) in [13] is 3 nM. For the same substance, in assay [17], the Ka amounted to 3.8e+08 M⁻¹ and the dissociation constant Kd was 2.6 nM.
Take HyHEL10 Fab Y53F: in assay [7], the Fold change is 4.8 fold and the ΔΔG apparent was -0.9 kcal/mol. Also, in [13], the Kd came out at 8 nM. Besides, in [22], the Ka is 1.2e+08 M⁻¹ and the dissociation constant (Kd) is 8.4 nM.
Regarding HyHEL10 Fab Y58F, the ΔΔG apparent in assay [7] is -0.8 kcal/mol. Besides, the Kd in assay [13] was determined as 11 nM. Moreover, in [17], the Ka is 9.4e+07 M⁻¹ and the dissociation constant Kd stood at 11 nM.
HyHEL10 Fab, wild-type: the Ka in assay [23] came out at 1.6e+07 M⁻¹; in assay [15], 1.2e+07 M⁻¹; in [24], 2.5e+07 M⁻¹. In addition, the Fold change in [7] and in [14] was 0 fold each time. Further, the ΔΔG apparent in assay [7] and in assay [14] was 0 kcal/mol each time. In addition, the Kd is 84 nM in assay [12], 40 nM in assay [13], 84 nM in [15] and 40 nM in assay [24].
